In general, stoichiometry N refers to the number of molecules, sites or subunits per partner or assembly.

This assay deals with SasC aggregation domain (S. aureus surface protein C), His-tagged (S. aureus strain N315). Nature of the assay: SEC-MALS; FPLC-MALS (Wyatt Technology) of the purified His-tagged SasC aggregation domain; superpolymer of about 1,610 kDa against 41.5 kDa for the domain. In general terms: Size exclusion chromatography separates by hydrodynamic size, large species first.

“SasC aggregation domain (S. aureus surface protein C), His-tagged (domain or fragment)” came in with a stoichiometry N greater than 35.

The values are drawn from paper PMC7376557.
